Reference: PMC8280819 (The EMBO Journal, 2021)

Target: His‐SigH (Mycobacterium tuberculosis, UniProt P9WGH8 1-216)
Assay: BLI

Chain of His‐SigH (P9WGH8 whole entry): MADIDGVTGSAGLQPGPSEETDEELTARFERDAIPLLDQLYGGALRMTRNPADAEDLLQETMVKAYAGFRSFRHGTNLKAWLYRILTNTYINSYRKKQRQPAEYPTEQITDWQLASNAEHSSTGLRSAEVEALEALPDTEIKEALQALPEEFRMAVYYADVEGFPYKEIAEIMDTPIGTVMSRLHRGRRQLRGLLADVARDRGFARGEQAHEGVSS

B1: His‐AosR (Rv1332, actinomycetes oxidative stress regulator) (natural protein)
chain: MPPVCGRRCSRTGEIRGYSGSIVRRWKRVETRDGPRFRSSLAPHEAALLKNLAGAMIGLLDDRDSSSPSDELEEITGIKTGHAQRPGDPTLRRLLPDFYRPDDLDDDDPTAVDGSESFNAALRSLHEPEIIDAKRVAAQQLLDTVPDNGGRLELTESDANAWIAAVNDLRLALGVMLEIGPRGPERLPGNHPLAAHFNVYQWLTVLQEYLVLVLMGSR
response, fold over reducing conditions: 3 fold
